Laboratory results from US20200368361A1 (Regeneron, published 2020).
Blank lines part the entries; values can stand above or below the binder they belong to.

Assays:
[1] = molecular target: T1, monkey MSR1 extracellular domain expressed with a N-terminal hexahistidine-myc-myc tag (HMM-mfMSR1) (monkey (Macaca fascicularis)); assay: SPR Biacore, 25C, mAb captured by anti-human Fc, MSR1 as analyte; calculated from kd fixed at 1.00E-05
T1 chain: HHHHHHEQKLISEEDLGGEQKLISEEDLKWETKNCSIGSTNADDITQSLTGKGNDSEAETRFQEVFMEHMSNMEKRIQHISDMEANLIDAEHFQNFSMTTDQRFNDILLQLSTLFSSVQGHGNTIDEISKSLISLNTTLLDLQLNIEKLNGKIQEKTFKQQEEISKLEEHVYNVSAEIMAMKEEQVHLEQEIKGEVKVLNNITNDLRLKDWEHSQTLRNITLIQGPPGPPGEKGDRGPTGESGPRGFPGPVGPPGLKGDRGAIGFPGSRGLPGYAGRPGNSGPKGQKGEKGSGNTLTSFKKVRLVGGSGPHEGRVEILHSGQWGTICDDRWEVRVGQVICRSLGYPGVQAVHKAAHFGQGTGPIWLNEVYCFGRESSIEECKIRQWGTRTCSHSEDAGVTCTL
Experimental: (§1) Binding affinities and kinetic constants of human anti-MSR1 antibodies for different MSR1 reagents were determined by real-time surface plasmon resonance (Biacore 4000). All binding studies were performed in 10 mM HEPES, 150 mM NaCl, 3 mM EDTA, and 0.05% v/v Surfactant Tween-20, pH 7.4 (HBS-ET) running buffer at 25° C. and 37° C.
(§2) The association rate (kₐ) and dissociation rate (kd) were determined by fitting the real-time binding sensorgrams to a 1:1 binding model with mass transport limitation using Scrubber 2.0 c curve-fitting software.

[2] = molecular target: T2, human MSR1 extracellular domain expressed with a N-terminal nonahistidine tag (His9-hMSR1); R&D Systems, Cat … (human, UniProt P21757 77-451); assay: as above
T2 construct: extracellular domain; Bought protein; also called His-hMSR1
T2 sequence: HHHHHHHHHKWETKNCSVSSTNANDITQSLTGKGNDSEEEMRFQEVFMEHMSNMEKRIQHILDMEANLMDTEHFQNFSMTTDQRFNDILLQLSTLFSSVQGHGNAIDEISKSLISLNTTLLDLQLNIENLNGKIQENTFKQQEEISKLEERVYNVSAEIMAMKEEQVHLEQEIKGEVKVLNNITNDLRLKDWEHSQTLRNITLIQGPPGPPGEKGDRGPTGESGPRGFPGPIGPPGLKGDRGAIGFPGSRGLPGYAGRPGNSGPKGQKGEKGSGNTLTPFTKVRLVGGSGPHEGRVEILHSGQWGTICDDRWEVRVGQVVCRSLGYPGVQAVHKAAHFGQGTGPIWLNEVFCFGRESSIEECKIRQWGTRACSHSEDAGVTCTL
Experimental: as §1, §2

[3] = molecular target: T3, mouse MSR1 on RAW264.7 cells (mouse, UniProt P30204 1-458); assay: flow cytometry, RAW264.7 cells, 10 ug/mL;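 also: antibodies bound to RAW264.7 cells for 30 min on ice after Fc block with mouse IgG, S/N is MFI relative to unstained cells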
T3 construct: whole, on cells
T3 sequence (looked up): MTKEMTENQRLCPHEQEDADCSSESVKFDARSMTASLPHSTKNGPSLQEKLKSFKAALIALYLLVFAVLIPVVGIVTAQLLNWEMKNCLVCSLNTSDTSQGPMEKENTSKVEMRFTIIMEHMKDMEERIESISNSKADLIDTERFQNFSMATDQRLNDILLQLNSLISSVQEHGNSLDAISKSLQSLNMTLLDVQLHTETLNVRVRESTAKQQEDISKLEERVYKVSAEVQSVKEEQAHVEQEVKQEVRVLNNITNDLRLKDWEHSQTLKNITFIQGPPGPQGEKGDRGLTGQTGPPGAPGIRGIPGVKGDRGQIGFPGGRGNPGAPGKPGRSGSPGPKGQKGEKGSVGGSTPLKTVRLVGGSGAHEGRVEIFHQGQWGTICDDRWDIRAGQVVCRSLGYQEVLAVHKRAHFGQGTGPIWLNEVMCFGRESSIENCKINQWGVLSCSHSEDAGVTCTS
Experimental: To block binding to Fc receptors, RAW264.7 cells were incubated for 30 minutes at 4° C. with 500 μg/mL mouse IgG (Jackson ImmunoResearch, Cat #015-000-003) diluted in staining buffer, while B16F10.9 cells remained in staining buffer. Following Fc receptor blocking, 10 μg/mL of anti-MSR1 antibodies or an isotype control antibody were added to the cells and were subsequently incubated for 30 minutes on ice. […] The signal to noise (S/N) was determined by calculating the ratio of the anti-MSR1 antibodies or the control antibodies MFI to the unstained sample MFI (Table 16).

[4] = molecular target: T4, human MSR1 extracellular domain expressed with a N-terminal nonahistidine tag (human, UniProt P21757 77-451); assay: SPR 37C, mAb captured; no dissociation seen, kd fixed
T4 construct: extracellular domain; Bought reagent; also called His9-hMSR1
T4 sequence: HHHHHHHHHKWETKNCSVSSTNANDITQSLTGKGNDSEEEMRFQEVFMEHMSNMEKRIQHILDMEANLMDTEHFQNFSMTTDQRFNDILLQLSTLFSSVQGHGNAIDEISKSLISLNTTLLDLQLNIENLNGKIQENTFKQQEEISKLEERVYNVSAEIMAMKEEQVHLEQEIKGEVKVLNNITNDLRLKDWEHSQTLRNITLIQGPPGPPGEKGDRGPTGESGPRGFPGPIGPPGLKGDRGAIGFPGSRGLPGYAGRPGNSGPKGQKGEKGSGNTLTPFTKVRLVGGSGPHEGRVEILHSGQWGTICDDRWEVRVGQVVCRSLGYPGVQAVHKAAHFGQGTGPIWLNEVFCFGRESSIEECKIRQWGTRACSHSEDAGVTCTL
Experimental: as §1, §2

[5] = molecular target: T5, monkey MSR1 extracellular domain expressed with a N-terminal hexahistidine-myc-myc tag (monkey (Macaca fascicularis)); assay: as above
T5 construct: also called HMM-mfMSR1
T5 chain: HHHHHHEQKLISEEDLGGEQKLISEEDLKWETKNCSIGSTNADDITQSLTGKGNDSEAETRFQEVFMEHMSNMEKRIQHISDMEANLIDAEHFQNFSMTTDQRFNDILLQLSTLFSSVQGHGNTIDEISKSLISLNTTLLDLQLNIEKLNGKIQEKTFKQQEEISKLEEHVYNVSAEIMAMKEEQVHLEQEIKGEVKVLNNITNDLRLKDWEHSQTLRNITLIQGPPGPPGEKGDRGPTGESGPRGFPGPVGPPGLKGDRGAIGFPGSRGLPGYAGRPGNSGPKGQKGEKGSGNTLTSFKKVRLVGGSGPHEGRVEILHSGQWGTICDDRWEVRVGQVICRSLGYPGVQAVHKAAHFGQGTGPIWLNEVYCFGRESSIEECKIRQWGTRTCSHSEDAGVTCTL
Experimental: as §1, §2

[6] = molecular target: T6, full length monkey MSR1 on HEK293.mfMSR1 cells (Macaca fascicularis, UniProt A0A2K5UWE2 1-451); assay: ECL cell binding, HEK293.mfMSR1
T6 construct: whole, on cells
T6 sequence: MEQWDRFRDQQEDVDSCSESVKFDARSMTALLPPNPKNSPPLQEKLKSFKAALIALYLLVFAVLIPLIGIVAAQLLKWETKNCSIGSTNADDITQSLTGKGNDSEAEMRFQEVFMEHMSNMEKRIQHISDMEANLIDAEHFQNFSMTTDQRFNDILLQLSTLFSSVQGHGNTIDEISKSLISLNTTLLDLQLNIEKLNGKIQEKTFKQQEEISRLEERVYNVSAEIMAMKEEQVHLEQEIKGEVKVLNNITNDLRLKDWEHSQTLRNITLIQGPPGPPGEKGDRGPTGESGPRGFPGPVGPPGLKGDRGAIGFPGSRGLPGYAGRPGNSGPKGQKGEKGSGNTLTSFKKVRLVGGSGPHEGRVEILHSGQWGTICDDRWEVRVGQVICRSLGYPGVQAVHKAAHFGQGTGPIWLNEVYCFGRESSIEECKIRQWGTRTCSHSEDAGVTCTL
Experimental: (§3) All cells were washed once with 1×PBS with Ca²⁺/Mg²⁺ and counted with a Cellometer™ Auto T4 cell counter (Nexcelom Bioscience). Approximately 1.0×10⁴ cells were seeded separately onto 96-well carbon electrode plates [MULTI-ARRAY high bind plate, Meso Scale Diagnostics] and incubated for 1 hour at 37° C. Non-specific binding sites were then blocked by 2% BSA (w/v) in PBS with Ca²⁺/Mg²⁺ for 1 hour at room temperature. THP-1 cells were pre-incubated for 0.5 hours at room temperature in sample dilution buffer with: 1) 1 mg/mL Fc receptor block reagents to block Fc gamma receptors on THP-1 cell surface [whole molecule human IgG (Jackson Immunoresearch, Cat #009-000-003) for wells being tested with anti-MSR1-mFc antibodies or 2) whole molecule mIgG (Jackson Immunoresearch, Cat #015-000-003) for wells being tested with anti-MSR1-hFc antibodies. Antibody binding on HEK293.Myc.hMSR1, HEK293.mfMSR1 and HEK293 cells was tested without Fc receptor block reagents. […] Plates were then washed to remove unbound antibodies an AquaMax2000 plate washer with a cell washing head (MDS Analytical Technologies). […] Plates were washed and developed with Read Buffer (Meso Scale Diagnostics, Cat #R92TD-2) according to manufacturer's recommended procedure and luminescent signals were recorded with a SECTOR Imager 600 (Meso Scale Diagnostics). Luminescence intensity, measured in relative light units (RLU), was recorded to indicate the binding intensity of each antibody at the range of concentrations.

[7] = molecular target: T7, full length human MSR1 with a C-terminal Myc tag on HEK293.Myc.hMSR1 cells (human, UniProt P21757 1-451); assay: ECL cell binding, HEK293.Myc.hMSR1
T7 construct: whole, on cells
T7 sequence (looked up): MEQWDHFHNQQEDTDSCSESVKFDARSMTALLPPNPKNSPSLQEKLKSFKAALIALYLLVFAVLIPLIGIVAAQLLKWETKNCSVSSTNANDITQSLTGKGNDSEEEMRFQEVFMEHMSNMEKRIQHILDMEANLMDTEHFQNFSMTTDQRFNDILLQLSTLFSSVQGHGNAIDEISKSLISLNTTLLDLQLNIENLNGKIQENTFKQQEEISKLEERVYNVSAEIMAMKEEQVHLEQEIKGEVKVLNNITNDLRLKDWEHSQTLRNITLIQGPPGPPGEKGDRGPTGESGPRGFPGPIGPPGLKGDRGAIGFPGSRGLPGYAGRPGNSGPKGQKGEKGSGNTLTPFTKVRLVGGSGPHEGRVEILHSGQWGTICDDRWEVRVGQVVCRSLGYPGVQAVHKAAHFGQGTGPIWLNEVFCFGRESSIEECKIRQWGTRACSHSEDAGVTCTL
Experimental: as §3

[8] = molecular target: T8, full length monkey MSR1 on HEK293.mfMSR1 cells (Macaca fascicularis, UniProt A0A2K5UWE2 1-451); assay: ECL cell binding (Meso Scale), ratio to isotype control compared with parental HEK293
T8 construct: whole, on cells; also called mfMSR1 engineered cells
T8 sequence: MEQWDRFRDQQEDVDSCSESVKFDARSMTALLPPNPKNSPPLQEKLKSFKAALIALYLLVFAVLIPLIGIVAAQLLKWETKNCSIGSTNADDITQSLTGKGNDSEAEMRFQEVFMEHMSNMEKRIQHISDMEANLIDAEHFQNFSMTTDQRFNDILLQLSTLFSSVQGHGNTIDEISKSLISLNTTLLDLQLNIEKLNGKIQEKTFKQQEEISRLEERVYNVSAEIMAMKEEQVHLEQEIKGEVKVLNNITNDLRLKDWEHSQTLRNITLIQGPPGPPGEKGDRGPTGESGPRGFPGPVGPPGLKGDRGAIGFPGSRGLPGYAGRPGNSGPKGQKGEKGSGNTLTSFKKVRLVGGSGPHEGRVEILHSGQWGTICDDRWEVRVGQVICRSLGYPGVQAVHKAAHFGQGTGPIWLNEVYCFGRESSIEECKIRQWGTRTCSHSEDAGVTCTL

t½ [1]: 19.2 h
t½ [2]: 19.2 h
B1: H1H21234N (antibody, V domains shown)
VH: QVQLQESGPGLVKPSETLSLTCTVTGGSISRNYWSWIRQPPGKGLEWIGYIYYSGSIDYNPSLKSRVTISVDTSKNQFSLKLSSMTAADTAVYYCARDRWNWKYGMDVWGQGTTVIVSS
VL: EIVLTQSPGTLSLSPGERATLSCRASQTVRNNYLAWYHQKPGQAPRLLIYGASSRATGIPDRFSGSGSGTDFTLTISRLEPEDFTVYYCHQYGNSPWTFGQGTKMEIKR
notes: original human IgG1 Fc (no N297 mutation)

MFI [3]: 7050
S/N [3]: 3
Kd [4]: ≤ 12.7 pM
Kd [5]: ≤ 13.3 pM
binding signal ratio to isotype control (11 nM) [6]: 35 fold
binding signal ratio to isotype control (11 nM) [7]: 43 fold
B2: H1H21234N-N297Q (antibody, human IgG1, V domains shown)
VH: QVQLQESGPGLVKPSETLSLTCTVTGGSISRNYWSWIRQPPGKGLEWIGYIYYSGSIDYNPSLKSRVTISVDTSKNQFSLKLSSMTAADTAVYYCARDRWNWKYGMDVWGQGTTVIVSS
VL: EIVLTQSPGTLSLSPGERATLSCRASQTVRNNYLAWYHQKPGQAPRLLIYGASSRATGIPDRFSGSGSGTDFTLTISRLEPEDFTVYYCHQYGNSPWTFGQGTKMEIKR
notes: human IgG1 Fc with N297Q

binding result [8]: no binding (tested: 11 nM)
B3: H1xH29273P2 (antibody, V domains shown)
VH: QVQLVESGGGVVQSGRSLRLSCAAAGFTFSNYGMHWVRQAPGKGLEWVALMSFDGSDKYYADSVKGRFTISRDNSKNTLYLQMNSLRAEDTALYYCAKGYDFWSGYWDYWGQGTLVTVSS
VL: not shown
notes: The H1xH prefix is not explained for the anti-MSR1 antibodies; Fc form as tested not clear
